Data as given in publication PMC5345068, “A Glycyrrhetinic Acid-Modified Curcumin Supramolecular Hydrogel for liver tumor targeting therapy” (Scientific Reports, 2017).
Read-outs that look alike come from different tables or passages of the source.

Columns and labels:
[1] = water; cited from earlier work
Source text: Curcumin (Cur), a hydrophobic polyphenol compound, is derived from the rhizomes of Curcuma longa. Cur has a wide range of therapeutic properties, such as anti-inflammation[18], anti-oxidant[19], anti-mutagenic[20], and anticancer[21] with low or no intrinsic toxicity to healthy cells. […] Fig. S-6A). […] The minimum gelation ...

HepG2 cells [2] = assay: cells; settings: Homo sapiens, HepG2, 48 h, read-out: IC50 HepG2 mean (Table S-1)
mouse NIH 3T3 cells [3] = assay: cells; settings: NIH3T3, 48 h, read-out: IC50, mouse fibroblast 3T3 cells
[4] = solubility of pro-gelators in PBS
Procedure: (§1) We therefore tested the gelation ability of the obtained two compounds. […] We then used a rheometer to characterize the resulting hydrogels obtained at 2 h time point. […] We then investigated the fluorescence spectra of the precursors (GA-cur and Nap-cur) and the hydrogels (GA-gel and Nap-gel).
(§2) 3 mg of GA-Cur or Nap-Cur was dissolved in 0.25 mL phosphate buffer saline (PBS) buffer solution (pH = 7.4, adjusted by 1.5 equiv. of Na2CO3). 4equiv. of glutathione (GSH) in 0.05 mL of PBS buffer (pH = 7.4, adjusted by 3.6equiv. of Na2CO3) was added to the above solution.

[5] = critical micelle concentration (CMC); type: physicochemical; settings: Fig. S-7
Source text: Fig. S-7. The critical micelle concentration (CMC) of A) GA-cur and B) Nap-cur.
Fig. S-8. The LC-MS traces of the GA-Cur (mw=2398.78,1/ mw=1200.6) and the formed
Fig. S-9. The LC-MS traces of the Nap-Cur ([…]/ mw=1058.6) and the formed

[6] = gelation test with GSH and hydrogel stability; type: physicochemical; settings: PBS pH 7.4, disulfide reduction by GSH
Procedure: as §1, §2

HepG2 cells [7] = settings: 48 h
HepG2 cells [8] = assay: cellular uptake, HepG2; settings: 25 μM, 4 h, 6-well plates, 2.5 × 10^5 cells per well, DMSO lysis, microplate reader excitation 488 nm
Procedure: (§3) After being incubated for 24 h in 6-well plates at a density of 2.5 × 10^5 cells per-well, HepG2 cells were treated with 2 mL growth medium containing 25 μM of Cur, GA-Cur, Nap-Cur, or GA + GA-Cur, respectively. In GA + GA-Cur group, 50 μM of GA was used to pre-treat cells for 2 hours. HepG2 cells were then rinsed for three times with PBS following with a treatment with 25 μM of GA-Cur for another 4 hours. After 4 hours’ incubation, cells were washed for three times with PBS to remove excess compounds and 500 μL of DMSO was added to each well to dissolve compounds in cells. The solution were collected after being treated with sonication for 15 min. The amount of compounds in the cells was determined by a microplate reader excitated at 488 nm. The same experiments were performed with 3T3 cells.

3T3 cells = assay: cellular uptake, 3T3; settings: same experiment as HepG2: 25 μM, 4 h; Fig. S-15
Procedure: as §3

mouse NIH 3T3 cells [9] = settings: read-out: IC50, mouse fibroblast 3T3 cells; MTT, 48 h

Row | SMILES | aqueous solubility [1] | IC50 (HepG2 cells [2]) [µM] | IC50 (mouse NIH 3T3 cells [3]) [µM] | well solubilized in phosphate buffer saline at a concentration of [4] [mg/mL] | critical micelle concentration (CMC) [5] | minimum gelation concentration [6] | IC50 (HepG2 cells [7]) [µM] | well solubilized in phosphate buffer saline at a concentration of ([4]; PBS pH = 7.4, 10 mg/mL = 1 wt%, optical image) [mg/mL] | intra-cellular concentration of Cur, HepG2 (HepG2 cells [8]) [ng/well] | intra-cellular concentration of Cur, 3T3 (3T3 cells) [ng/well] | IC50 (HepG2 cells [7]; read-out: IC50 against HepG2, MTT) [µM] | IC50 (mouse NIH 3T3 cells [9]) [µM]
1 | COc1cc(/C=C/C(=O)CC(=O)/C=C/c2ccc(O)c(OC)c2)ccc1O [Cur, Curcumin] | ≈ 11 ng/ml | 26.5 | 28 |  |  |  |  |  |  |  |  | 
2 | COc1cc(/C=C/C(=O)CC(=O)/C=C/c2ccc(OC(=O)CCCC(=O)NCCCC[C@H](NC(=O)[C@H](Cc3ccc(O)cc3)NC(=O)[C@H](Cc3ccccc3)NC(=O)[C@H](Cc3ccccc3)NC(=O)CNC(=O)[C@@]3(C)CC[C@]4(C)CC[C@]5(C)C(=CC(=O)[C@@H]6[C@@]7(C)CC[C@H](O)C(C)(C)[C@@H]7CC[C@]65C)[C@@H]4C3)C(=O)N[C@@H](CCC(=O)O)C(=O)NCCSSCCNC(=O)CCC(=O)N[C@@H](CCC(=O)O)C(=O)N[C@@H](CCCNC(=N)N)C(=O)NCC(=O)N[C@@H](CC(=O)O)C(=O)O)c(OC)c2)ccc1O [GA-Cur, GA–GFFYK(Cur)E-ss-ERGD] |  |  |  | ≥ 10 | about 1105 μg/mL | about 0.75 wt% | 10.7 |  |  |  |  | 
3 | COc1cc(/C=C/C(=O)CC(=O)/C=C/c2ccc(OC(=O)CCCC(=O)NCCCC[C@H](NC(=O)[C@H](Cc3ccc(O)cc3)NC(=O)[C@H](Cc3ccccc3)NC(=O)[C@H](Cc3ccccc3)NC(=O)CNC(=O)Cc3ccc4ccccc4c3)C(=O)N[C@@H](CCC(=O)O)C(=O)NCCSSCCNC(=O)CCC(=O)N[C@@H](CCC(=O)O)C(=O)N[C@@H](CCCNC(=N)N)C(=O)NCC(=O)N[C@@H](CC(=O)O)C(=O)O)c(OC)c2)ccc1O [Nap-Cur, Nap–GFFYK(Cur)E-ss-ERGD] |  |  |  |  | ~1349 µg/mL |  |  | ≥ 10 | 670 | 641 | 29.7 | 28.7
